From patent US11466067B2 (priority 2019, dated 2022)

Legend:
[1] = system: circulating cytokines; experiment: Plasma cytokines by MSD V-plex Proinflammatory Panel 1 (Example 14); format: in vivo, mice
Source text: Plasma cytokines were quantified using the V-plex Proinflammatory Panel 1 Mouse Kit. Plasma IL-1Ra was quantitated by sandwich immunoassay using an antibody pair from the Mouse IL-1Ra/IL-1F3 DuoSet ELISA (R&D Systems #DY480), Streptavidin SULFO-TAG Labeled (MSD #R32AD-1), Multi-Array 96 Plate Pack, SECTOR Plate MSD #L15XA-3 and Read Buffer T (4×) (MSD #R92TC-2). Samples were read on the QuickPlex SQ 120 plate reader (Meso Scale Discovery, Rockville, Md.).

[2] = system: IL-1Ra; format: in vivo, mice; details: 9 mg/kg
[3] = system: IFNγ, IL-1β, IL-2, IL-6, IL-8, TNFα; experiment: Single oral capsule dose in NHP: plasma proinflammatory cytokines; format: in vivo, Macaca fascicularis
Experimental: The panel of cytokines (IFNγ, IL-1β, IL-2, IL-6, and IL-8) was evaluated using a multiplex kit available from MSD. The assays in this panel were sandwich immunoassays. The MSD plate came precoated with capture antibodies on independent and pre-defined spots, and samples were quantitated against an 8-point standard curve prepared using a mixture of the cytokines (Proinflammatory Panel 1 (human) Calibrator Blend) from MSD. The standards included 0 pg/mL and these concentration ranges: IFNγ (0.37-1500 pg/mL), IL-1β (0.14-589 pg/mL), IL-2 (0.36-1490 pg/mL), IL-6 (0.18-721 pg/mL) and IL-8 (0.14-553 pg/mL).
The MSD plate (pre-coated with capture antibodies) was washed 3 times with PBST before use. Standards were prepared in Diluent 2 (MSD Cat No R51BB) and test samples diluted 2 fold in Diluent 2. Standards and diluted samples were added to the assay plate, and the plate incubated for 2 hours at room temperature with shaking. The plate was washed 3 times with PBST, and a mixture of 1×SULFO TAG detection antibodies added to the plate. The plate was incubated for 2 hours at room temperature with shaking. Following a wash step, 2×MSD Read buffer was added to the wells of the plate, and the plate read using the MSD Sector Imager 600 plate reader. The lower limit of detection of each analyte was defined as 2.5 standard deviation above background.
The purpose of the TNFα immunoassay was to quantify NHP TNFα concentration in plasma. The antibody pair in this immunoassay reacted with both human and NHP TNFα. Samples were quantitated using an 8-point standard curve prepared from a human TNFα calibrator that ranges in concentration from 5.6-4052 pg/mL and includes 0 pg/mL.
The biotinylated anti-NHP TNFα capture antibody was added to a MSD Small Spot Streptavidin plate and incubated for an hour at RT with shaking. Controls were prepared in pooled plasma, standards in Diluent 43 (MSD Cat No R50AG), and test samples were diluted 2 fold in Diluent 43. […] Following a wash step, 2×MSD Read buffer was added to the wells of the plate, and the plate read using the MSD Sector Imager 600 plate reader. […]

[4] = system: enterocytes; experiment: Vesicular trafficking co-localization (Rab7, Rab11, LMAN1, LAMP1) in jejunum; format: in vivo, rat
Source text: The timing of LMAN1 redistribution to the basal compartment coincides with the presence of hIL-10 being ultimately detected in non-polarized cells within the Lamina propria where it was not associated with LMAN1.
Ultimately, the delivery construct is delivered to lysosome-like structures within a large fraction of cells within the Lamina propria, an outcome that would limit its systemic distribution following A-B transcytosis.

[5] = Intracolonic spray in NHP: IL-1Ra, pSTAT3, construct, IL-10; format: in vivo, cynomolgus monkeys
Source text: This was achieved using a colonoscope with an associated spray nozzle. In this way, refined information for onset and duration of IL-1Ra induction could be obtained at specific local doses. […] The variability of pSTAT3/total STAT3 detected was consistent with tissue capture and stability challenges in this in vivo model. Measurement of tissue delivery construct levels had similar tissue capture and stability challenges, showing low and variable amounts in the tissue samples collected (FIG. 143). […] Since IL-10 can induce cells to produce more IL-10, we also looked for induced IL-10. […] It is important to note, due to the similarity of human and NHP IL-10, that ELISA values shown could also include hIL-10 that has somehow separated from the carrier domain of the delivery construct molecule. While this cannot be ruled out, no other data supports this as an outcome and it appears likely that the majority, if not all, tissue and serum IL-10 measured represents an NHP source.

[6] = Process trains with S-650F cation exchange: yield, recovery, purity, endotoxin
Experimental: Refolding was carried out at 4° C. in a refolding solution containing 1 mM reduced glutathione, 0.5 mM oxidized glutathione, 1M Arginine-HCl, 250 mM sucrose, 100 mM Tris pH 8.5 at 4° C., and 2 mM EDTA. […] Buffer A for the CHT bind/elute step in Table 56 may also comprise 25 mM Tris, pH7.5, 300 mM NaCl, 5.0 mM NaPi, 0.5 mM CaCl2. Columns used are described in Table 58.
The yield, recovery, and purity of the IL-10 delivery construct was assess after each step, and after each process train.

[7] = Control process train: Capto Q, CHT (Linear elution), based on historical data
[8] = PT1: Capto Q, S-650F, CHT (FT mode)
[9] = PT2: Capto Q, CHT (Step elution), S-650F
[10] = PT3: S-650F, Capto Q, CHT (FT mode)

B1: IL-10 delivery construct: recombinant homodimeric fusion protein: N-terminal methionine, cholix386 domain, polyGlySer spacer, recombinant human IL-10 (protein)
chain: MVEEALNIFDECRSPCSLTPEPGKPIQSKLSIPSDVVLDEGVLYYSMTINDEQNDIKDEDKGESIITIGEFATVRATRHYVNQDAPFGVIHLDITTENGTKTYSYNRKEGEFAINWLVPIGEDSPASIKISVDELDQQRNIIEVPKLYSIDLDNQTLEQWKTQGNVSFSVTRPEHNIAISWPSVSYKAAQKEGSRHKRWAHWHTGLALCWLVPMDAIYNYITQQNCTLGDNWFGGSYETVAGTPKVITVKQGIEQKPVEQRIHFSKGNAMSALAAHRVCGVPLETLARSRKPRDLTDDLSCAYQAQNIVSLFVATRILFSHLDSVFTLNLDEQEPEVAERLSDLRRINENNPGMVTQVLTVARQIYNDYVTHHPGLTPEQTSAGAQAGGGGSGGGGSGGGGSPGQGTQSENSCTHFPGNLPNMLRDLRDAFSRVKTFFQMKDQLDNLLLKESLLEDFKGYLGCQALSEMIQFYLEEVMPQAENQDPDIKAHVNSLGENLKTLRLRLRRCHRFLPCENKSKAVEQVKNAFNKLQEKGIYKAMSEFDIFINYIEAYMTMKIRN
modifications: homodimer
suppression of induction of plasma IL-4 (trend) [1]: 62%
suppression of induction of plasma IL-6 (trend) [1]: 61%
suppression of induction of plasma IL-12p70 (trend) [1]: 65%
suppression of induction of plasma KC/GRO (trend) [1]: 51%
plasma IL-1β and IL-2 vs Vehicle ([1]; p<0.05): significantly reduced
IL-1Ra mRNA in near-distal colonic tissue [2]: trend towards augmented mRNA expression of IL-1Ra
IL-1Ra/IL-1β ratio in colonic tissue [2]: increase in the IL-1Ra/IL-1β ratio
plasma IFNγ, IL-1β, IL-2, IL-8, IL-6 ([3]; 1-82 mg oral capsules): not associated with any consistent trends
plasma TNFα ([3]; all samples below limit of detection): no induction
plasma IL-1Ra and IFN-γ after oral enteric-coated capsules ([3]; compared with intravenous administration): increased IL-1Ra without significant induction of IFN-γ
co-localization with LAMP1 in polarized enterocytes ([4]; 1-15 min post ILI): Limited LAMP1/delivery construct co-localizations
co-localization with LMAN1 ([4]; 1-15 min post ILI): co-localized with redistributing LMAN1
co-localization with LAMP1 in non-polarized cells of Lamina propria ([4]; 10 min and 15 min post ILI): extensive LAMP1/delivery construct co-localizations
co-localization with Rab7+ vesicles ([4]; enterocytes): predominantly in the apical vesicular compartment
co-localization with Rab11+ vesicles ([4]; enterocytes): mostly in the basal vesicular compartment
serum levels of the delivery construct ([5]; cynomolgus monkey, in vivo): below the assay detection limit
tissue IL-10 levels ([5]; within 15 min): dose-dependent and transient increases
Endotoxin [6, 7]: *8 EU/mg
Purity [6, 7]: *85%
Yield ([6]; Control: Capto Q ImpRes, CHT gradient B/E): 68 mg
Endotoxin [6, 8]: 8.9 EU/mg
Purity [6, 8]: 92%
Yield ([6]; PT2: Capto Q ImpRes, CHT step B/E 80 mM NaPi, S-650F): 26 mg
Endotoxin [6, 9]: 5 EU/mg
Purity [6, 9]: 91%
Endotoxin [6, 10]: 0.4 EU/mg
Purity [6, 10]: 96%
aggregation during freeze/thaw or at 1 week at 4 °C (20 mg/mL, any condition tested): did not show any significant increases in aggregation
stability with respect to aggregation (initial lyophilization feasibility study): more stable at pH 7.5 with sucrose and glycine
